Measurements reported in US7183387 (Genentech, dated 2007).

Assays:
Experiment in all cases: ELISA, IgG:IgE hexamers on receptor-GST
[1] = biological target: T1, human FcγRIIA-R131 α subunit extracellular domain-6His-GST fusion (human, UniProt P12318 34-217)
T1 construct: also called FcγRIIA-Arg131; not shown: glutathione S-transferase (GST)
T1 sequence: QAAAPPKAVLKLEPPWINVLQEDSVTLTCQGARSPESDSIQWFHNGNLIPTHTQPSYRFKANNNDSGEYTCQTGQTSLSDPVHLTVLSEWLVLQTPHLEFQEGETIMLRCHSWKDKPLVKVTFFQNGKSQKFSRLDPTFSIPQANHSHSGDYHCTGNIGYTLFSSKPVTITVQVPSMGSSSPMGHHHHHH

[2] = biological target: T2, human FcγRIIB α subunit extracellular domain-6His-GST fusion (human, UniProt P31994 43-217)
T2 construct: not shown: glutathione S-transferase (GST)
T2 sequence: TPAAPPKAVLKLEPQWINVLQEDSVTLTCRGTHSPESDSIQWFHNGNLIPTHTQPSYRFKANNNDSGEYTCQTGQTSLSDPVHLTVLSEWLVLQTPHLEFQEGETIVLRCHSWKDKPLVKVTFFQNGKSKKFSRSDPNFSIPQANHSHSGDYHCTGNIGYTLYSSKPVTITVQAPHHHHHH

[3] = biological target: T3, human FcγRIIIA-F158 α subunit extracellular domain-6His-GST fusion (human, UniProt P08637 17-208)
T3 construct: also called FcγRIIIA-Phe158; not shown: glutathione S-transferase (GST)
T3 sequence (P08637 other isoform, or with tags, fused parts or gaps, form in doubt): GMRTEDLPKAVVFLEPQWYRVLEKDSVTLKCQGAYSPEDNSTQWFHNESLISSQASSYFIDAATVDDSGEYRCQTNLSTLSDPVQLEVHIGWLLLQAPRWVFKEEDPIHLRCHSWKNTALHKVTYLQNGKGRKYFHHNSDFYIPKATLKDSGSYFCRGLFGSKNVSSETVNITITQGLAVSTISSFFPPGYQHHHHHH

Binder | ratio to native IgG1 [1] | ratio to native IgG1 [2] | ratio to native IgG1 [3]
E27 IgG1 variant K334(353)G (antibody, also called IG2 179) heavy: not shown light: DIQLTQSPSSLSASVGDRVTITCRASKPVDGEGDSYLNWYQQKPGKAPKLLIYAASYLESGVPSRFSGSGSGTDFTLTISSLQPEDFATYYCQQSHEDPYTFGQGTKVEIKRTVAAPSVFIFPPSDEQLKSGTASVVCLLNNFYPREAKVQWKVDNALQSGNSQESVTEQDSKDSTYSLSSTLTLSKADYEKHKVYACEVTHQGLSSPVTKSFNRGEC | 0.76 | 0.6 | 0.88
E27 IgG1 variant A327(346)G (antibody) heavy: not shown light: DIQLTQSPSSLSASVGDRVTITCRASKPVDGEGDSYLNWYQQKPGKAPKLLIYAASYLESGVPSRFSGSGSGTDFTLTISSLQPEDFATYYCQQSHEDPYTFGQGTKVEIKRTVAAPSVFIFPPSDEQLKSGTASVVCLLNNFYPREAKVQWKVDNALQSGNSQESVTEQDSKDSTYSLSSTLTLSKADYEKHKVYACEVTHQGLSSPVTKSFNRGEC | 0.92 | 0.83 | 0.36
E27 IgG1 variant A327(346)S (antibody) heavy: not shown light: DIQLTQSPSSLSASVGDRVTITCRASKPVDGEGDSYLNWYQQKPGKAPKLLIYAASYLESGVPSRFSGSGSGTDFTLTISSLQPEDFATYYCQQSHEDPYTFGQGTKVEIKRTVAAPSVFIFPPSDEQLKSGTASVVCLLNNFYPREAKVQWKVDNALQSGNSQESVTEQDSKDSTYSLSSTLTLSKADYEKHKVYACEVTHQGLSSPVTKSFNRGEC | 0.23 | 0.22 | 0.06
E27 IgG1 variant A330(349)D (antibody) heavy: not shown light: DIQLTQSPSSLSASVGDRVTITCRASKPVDGEGDSYLNWYQQKPGKAPKLLIYAASYLESGVPSRFSGSGSGTDFTLTISSLQPEDFATYYCQQSHEDPYTFGQGTKVEIKRTVAAPSVFIFPPSDEQLKSGTASVVCLLNNFYPREAKVQWKVDNALQSGNSQESVTEQDSKDSTYSLSSTLTLSKADYEKHKVYACEVTHQGLSSPVTKSFNRGEC | 0.18 | 0.08 | 0.07
E27 IgG1 variant A330(349)K (antibody, also called IG2 197) heavy: not shown light: DIQLTQSPSSLSASVGDRVTITCRASKPVDGEGDSYLNWYQQKPGKAPKLLIYAASYLESGVPSRFSGSGSGTDFTLTISSLQPEDFATYYCQQSHEDPYTFGQGTKVEIKRTVAAPSVFIFPPSDEQLKSGTASVVCLLNNFYPREAKVQWKVDNALQSGNSQESVTEQDSKDSTYSLSSTLTLSKADYEKHKVYACEVTHQGLSSPVTKSFNRGEC | 1.28 | 1.25 | 1.28
E27 IgG1 variant D249(262)E (antibody, also called IG2 222) heavy: not shown light: DIQLTQSPSSLSASVGDRVTITCRASKPVDGEGDSYLNWYQQKPGKAPKLLIYAASYLESGVPSRFSGSGSGTDFTLTISSLQPEDFATYYCQQSHEDPYTFGQGTKVEIKRTVAAPSVFIFPPSDEQLKSGTASVVCLLNNFYPREAKVQWKVDNALQSGNSQESVTEQDSKDSTYSLSSTLTLSKADYEKHKVYACEVTHQGLSSPVTKSFNRGEC | 0.97 | 0.99 | 0.84
E27 IgG1 variant D265(278)E (antibody, also called IG2 158) heavy: not shown light: DIQLTQSPSSLSASVGDRVTITCRASKPVDGEGDSYLNWYQQKPGKAPKLLIYAASYLESGVPSRFSGSGSGTDFTLTISSLQPEDFATYYCQQSHEDPYTFGQGTKVEIKRTVAAPSVFIFPPSDEQLKSGTASVVCLLNNFYPREAKVQWKVDNALQSGNSQESVTEQDSKDSTYSLSSTLTLSKADYEKHKVYACEVTHQGLSSPVTKSFNRGEC | 0.11 | 0.03 | 0.02
E27 IgG1 variant D265(278)N (antibody) heavy: not shown light: DIQLTQSPSSLSASVGDRVTITCRASKPVDGEGDSYLNWYQQKPGKAPKLLIYAASYLESGVPSRFSGSGSGTDFTLTISSLQPEDFATYYCQQSHEDPYTFGQGTKVEIKRTVAAPSVFIFPPSDEQLKSGTASVVCLLNNFYPREAKVQWKVDNALQSGNSQESVTEQDSKDSTYSLSSTLTLSKADYEKHKVYACEVTHQGLSSPVTKSFNRGEC | 0.02 | 0.03 | 0.02
E27 IgG1 variant D270(283)E (antibody, also called IG2 93) heavy: not shown light: DIQLTQSPSSLSASVGDRVTITCRASKPVDGEGDSYLNWYQQKPGKAPKLLIYAASYLESGVPSRFSGSGSGTDFTLTISSLQPEDFATYYCQQSHEDPYTFGQGTKVEIKRTVAAPSVFIFPPSDEQLKSGTASVVCLLNNFYPREAKVQWKVDNALQSGNSQESVTEQDSKDSTYSLSSTLTLSKADYEKHKVYACEVTHQGLSSPVTKSFNRGEC | 0.08 | 0.06 | 0.9
E27 IgG1 variant D270(283)N (antibody, also called IG2 92) heavy: not shown light: DIQLTQSPSSLSASVGDRVTITCRASKPVDGEGDSYLNWYQQKPGKAPKLLIYAASYLESGVPSRFSGSGSGTDFTLTISSLQPEDFATYYCQQSHEDPYTFGQGTKVEIKRTVAAPSVFIFPPSDEQLKSGTASVVCLLNNFYPREAKVQWKVDNALQSGNSQESVTEQDSKDSTYSLSSTLTLSKADYEKHKVYACEVTHQGLSSPVTKSFNRGEC | 0.03 | 0.05 | 0.04
E27 IgG1 variant D280(295)N (antibody, also called IG2 79) heavy: not shown light: DIQLTQSPSSLSASVGDRVTITCRASKPVDGEGDSYLNWYQQKPGKAPKLLIYAASYLESGVPSRFSGSGSGTDFTLTISSLQPEDFATYYCQQSHEDPYTFGQGTKVEIKRTVAAPSVFIFPPSDEQLKSGTASVVCLLNNFYPREAKVQWKVDNALQSGNSQESVTEQDSKDSTYSLSSTLTLSKADYEKHKVYACEVTHQGLSSPVTKSFNRGEC | 1.07 | 1.22 | 1.16
E27 IgG1 variant D280(295)S (antibody) heavy: not shown light: DIQLTQSPSSLSASVGDRVTITCRASKPVDGEGDSYLNWYQQKPGKAPKLLIYAASYLESGVPSRFSGSGSGTDFTLTISSLQPEDFATYYCQQSHEDPYTFGQGTKVEIKRTVAAPSVFIFPPSDEQLKSGTASVVCLLNNFYPREAKVQWKVDNALQSGNSQESVTEQDSKDSTYSLSSTLTLSKADYEKHKVYACEVTHQGLSSPVTKSFNRGEC | 1.07 | 1.04 | 1.09
E27 IgG1 variant E269(282)D (antibody) heavy: not shown light: DIQLTQSPSSLSASVGDRVTITCRASKPVDGEGDSYLNWYQQKPGKAPKLLIYAASYLESGVPSRFSGSGSGTDFTLTISSLQPEDFATYYCQQSHEDPYTFGQGTKVEIKRTVAAPSVFIFPPSDEQLKSGTASVVCLLNNFYPREAKVQWKVDNALQSGNSQESVTEQDSKDSTYSLSSTLTLSKADYEKHKVYACEVTHQGLSSPVTKSFNRGEC | 0.89 | 0.73 | 1.13
E27 IgG1 variant E269(282)Q (antibody, also called IG2 169) heavy: not shown light: DIQLTQSPSSLSASVGDRVTITCRASKPVDGEGDSYLNWYQQKPGKAPKLLIYAASYLESGVPSRFSGSGSGTDFTLTISSLQPEDFATYYCQQSHEDPYTFGQGTKVEIKRTVAAPSVFIFPPSDEQLKSGTASVVCLLNNFYPREAKVQWKVDNALQSGNSQESVTEQDSKDSTYSLSSTLTLSKADYEKHKVYACEVTHQGLSSPVTKSFNRGEC | 0.08 | 0.16 | 0.28
E27 IgG1 variant E333(352)D (antibody) heavy: not shown light: DIQLTQSPSSLSASVGDRVTITCRASKPVDGEGDSYLNWYQQKPGKAPKLLIYAASYLESGVPSRFSGSGSGTDFTLTISSLQPEDFATYYCQQSHEDPYTFGQGTKVEIKRTVAAPSVFIFPPSDEQLKSGTASVVCLLNNFYPREAKVQWKVDNALQSGNSQESVTEQDSKDSTYSLSSTLTLSKADYEKHKVYACEVTHQGLSSPVTKSFNRGEC |  |  | 1.26
E27 IgG1 variant E333(352)K (antibody) heavy: not shown light: DIQLTQSPSSLSASVGDRVTITCRASKPVDGEGDSYLNWYQQKPGKAPKLLIYAASYLESGVPSRFSGSGSGTDFTLTISSLQPEDFATYYCQQSHEDPYTFGQGTKVEIKRTVAAPSVFIFPPSDEQLKSGTASVVCLLNNFYPREAKVQWKVDNALQSGNSQESVTEQDSKDSTYSLSSTLTLSKADYEKHKVYACEVTHQGLSSPVTKSFNRGEC |  |  | 0.85
E27 IgG1 variant E333(352)S (antibody, also called IG2 143) heavy: not shown light: DIQLTQSPSSLSASVGDRVTITCRASKPVDGEGDSYLNWYQQKPGKAPKLLIYAASYLESGVPSRFSGSGSGTDFTLTISSLQPEDFATYYCQQSHEDPYTFGQGTKVEIKRTVAAPSVFIFPPSDEQLKSGTASVVCLLNNFYPREAKVQWKVDNALQSGNSQESVTEQDSKDSTYSLSSTLTLSKADYEKHKVYACEVTHQGLSSPVTKSFNRGEC |  |  | 0.94
E27 IgG1 variant S267(280)T (antibody) heavy: not shown light: DIQLTQSPSSLSASVGDRVTITCRASKPVDGEGDSYLNWYQQKPGKAPKLLIYAASYLESGVPSRFSGSGSGTDFTLTISSLQPEDFATYYCQQSHEDPYTFGQGTKVEIKRTVAAPSVFIFPPSDEQLKSGTASVVCLLNNFYPREAKVQWKVDNALQSGNSQESVTEQDSKDSTYSLSSTLTLSKADYEKHKVYACEVTHQGLSSPVTKSFNRGEC | 0.42 | 0.45 | 
